Experimental data published in paper PMC11399261 (Nature Communications, 2024).
Blank lines part the entries; values can stand above or below the binder they belong to.

Columns and labels:
Cdt1-Mcm2-7 heptamer = Cdt1-Mcm2-7 heptamer (S. cerevisiae, UniProt P47112;P29469;P24279;P30665;P29496;P53091;P38132); assay: pull-down
[1] = target: origin recognition complex (ORC), wild type (S. cerevisiae, UniProt P54784;P32833;P54790;P54791;P50874;P38826); assay: MCM loading assay on DNA beads
[2] = target: Orc2-I194E containing ORC (S. cerevisiae, UniProt P54784;P32833;P54790;P54791;P50874;P38826, I194E); assay: MCM loading assay on DNA beads
[3] = target: Orc2-ΔN175 containing ORC (S. cerevisiae, UniProt P54784;P32833;P54790;P54791;P50874;P38826); assay: MCM loading assay on DNA beads
[4] = target: Orc2-ΔN200 containing ORC (S. cerevisiae, UniProt P54784;P32833;P54790;P54791;P50874;P38826); assay: MCM loading assay on DNA beads

- binding result (Cdt1-Mcm2-7 heptamer): binds
B1: GST-Orc2N200-I194E (domain or fragment)
chain: MLNGEDFVEHNDILSSPAKSRNVTPKRVDPHGERQLRRIHSSKKNLLERISLVGNERKNTSPDPALKPKTPSKAPRKRGRPRKIQEELTDRIKKDEKDTISSKKKRKLDKDTSGNVNEESKTSNNKQVMEKTGIKEKREREKIQVATTTYEDNVTPQTDDNFVSNSPEPPEPATPSKKSLTTNHDFTSPLKQIEMNNLKE

- binding result [1]: binds
- binding result [2]: binds
- binding result [3]: binds
- binding result [4]: binds
B2: His-SUMO-Cdc6 (natural protein)
chain: MSAIPITPTKRIRRNLFDDAPATPPRPLKRKKLQFTDVTPESSPEKLQFGSQSIFLRTKALLQKSSELVNLNSSDGALPARTAEYEQVMNFLAKAISEHRSDSLYITGPPGTGKTAQLDMIIRQKFQSLPLSLSTPRSKDVLRHTNPNLQNLSWFELPDGRLESVAVTSINCISLGEPSSIFQKIFDSFQDLNGPTLQIKNMQHLQKFLEPYHKKTTFVVVLDEMDRLLHANTSETQSVRTILELFLLAKLPTVSFVLIGMANSLDMKDRFLSRLNLDRGLLPQTIVFQPYTAEQMYEIVIQKMSSLPTIIFQPMAIKFAAKKCAGNTGDLRKLFDVLRGSIEIYELEKRFLLSPTRGSLNSAQVPLTPTTSPVKKSYPEPQGKIGLNYIAKVFSKFVNNNSTRTRIAKLNIQQKLILCTIIQSLKLNSDATIDESFDHYIKAITKTDTLAPLQRNEFLEICTILETCGLVSIKKTKCKGKTKRFVDKIDVDLDMREFYDEMTKISILKPFLH
